{Biotin} = biotin attached at the strand end; {Cy3} = Cy3 fluorescent dye
B1: RNA nanoparticles: RNA nanoparticles self-assembled in Embodiment 1 from strands SEQ ID NO:52-54, C/U 2′F, 5′Biotin, 5′CY3 (nucleic acid)
chain 1: CGCGCGCCCACCAGCGUUCCGGGCGCCGC
chain 2: GCGGCGCCCGGUUCGCCGCCAGGCGGC
chain 3: GCCGCCAGGCGGCCAUAGCGGUGGGCGCGCG
modifications: chain 1: 2'-fluoro at CU, RNA at AG, 5' {Biotin}, backbone not given here; chain 2: 2'-fluoro at CU, RNA at AG, 5' {Biotin}, backbone not given here; chain 3: 2'-fluoro at CU, RNA at AG, 5' {Cy3}, backbone not given here; three-strand self-assembled RNA nanoparticle

Assays:
HepG2 cells = test: Cytotoxicity of RNA nanoparticles in HepG2 cells (CellTiter-Glo); assay type: cell-based; conditions: 200 nM, 72 hours, CTG
Procedure: (1) A RPMI1640+10% FBS+1% PS medium was used to culture HepG2 cells under 37 DEG C. and 5% CO2.
(2) The HepG2 cells were digested by a trypsin, 100 μL of 5000 cells per well was inoculated in a 96-well plate, and cultured overnight under 37 DEG C. and 5% CO2.
(3) Cell supernatant was removed on the second day, a sample to be tested was diluted with the culture medium, 200 nM of RNAh, RNAh-Biotine, RNAh-Dox and Dox were respectively added, 100 μL each was added to the plated cells, and each sample was repeated for 4 times.
(4) After being cultured for 72 hours, 100 μL of a CTG reagent was added to each well, shaking was performed for 2 min, and standing was performed at a room temperature for 10 minutes, and a whole process was performed in the dark.
(5) Finally Soft Max ProS software was used for reading.

[1] = Serum stability of RNA nanoparticles, RPMI 1640 with 10% serum, non-denaturing gel; assay type: in vitro ADME; conditions: for RNA quantification result, RNA nanoparticle: RPMI 1640 with 10% serum, 37 DEG C.
Procedure: (1) 350 μl of the PBS was absorbed into a RNA nanoparticle sample, and adequately mixed uniformly.
(2) 2 μM of the RNA nanoparticles were incubated in the RPMI 1640 medium containing 10% serum.
(3) After being incubated at 37 DEG C. for 10 min, 1 h, 12 h, and 36 h, samples were taken respectively.
(4) After NanoDrop used for quantification, 200 ng of the RNA nanoparticlesnanoparticle were taken, the same volume of Tris-Glycine SDS sample buffer solution (2×) was added, and adequately mixed uniformly.
(5) A piece of Novex™ 8% Tris-Glycine Mini gel was taken, the samples were loaded in order, a program was set in 200 V, 30 min, and electrophoresis was started.
(6) After the electrophoresis was over, G250 staining was performed, it was placed on a horizontal shaker for 30 min to 1 h, and pictures were taken for imaging.

[2] = Doxorubicin loading rate, physical loading; assay type: physicochemical; conditions: mass ratio doxorubicin:RNA nanoparticles 1:1, 55 DEG C., 3 h
Procedure: 1) enabling a mass ratio of the doxorubicin and the RNA nanoparticles to be 1:1;
2) weighing 0.1 mg of a doxorubicin original drug and dissolving in 50 μL of DMSO, and then adding 300 μL of the PBS and mixing uniformly;
3) enabling RNA particles to be dissolved in 200 μL of the […] treated water, and adding into the doxorubicin-PBS mixed solution, uniformly mixing, and adjusting a pH to be about 7.5;
4) putting the whole solution in a water bath kettle at 55 DEG C., and reacting for 3 h;
5) after the reaction, directly adding 10 times of anhydrous ethanol in volume, and precipitating at 4 DEG C. for 4 h; and
6) washing for 4 times with 10 times of the anhydrous ethanol, and transferring to 1.5 mL of a EP tube. Subsequently, measuring a loading rate, herein the measuring method is the same as above, and a measuring result is that a doxorubicin loading rate is 15.5.

Row | Molecule | HepG2 cell proliferation (%) Mean ± SEM (n = 4) (HepG2 cells) | serum stability (non-denaturing gel bands) ([1]; 1640 medium of 10% FBS, 10 min, 1 h, 12 h, 36 h at 37 DEG C.) | RNA quantification result, RNA nanoparticle ([1]; incubation 10 min) | RNA quantification result, RNA nanoparticle ([1]; incubation 1 h) | RNA quantification result, RNA nanoparticle ([1]; incubation 12 h) | RNA quantification result, RNA nanoparticle ([1]; incubation 36 h) | RNA quantification result, RNA nanoparticle ([1]; incubation time 0) | doxorubicin loading rate [2]
1 | COc1cccc2c1C(=O)c1c(O)c3c(c(O)c1C2=O)C[C@@](O)(C(=O)CO)C[C@@H]3O[C@H]1C[C@H](N)[C@H](O)[C@H](C)O1 [doxorubicin] | 39.56% | – | – | – | – | – | – | –
2 | B1 | – | relatively stable | 193.5 ng/µL | 176.0 ng/µL | 175.5 ng/µL | 214.8 ng/µL | 178.8 ng/µL | 15.5
